From patent publication CN109721655A (ZONHON BIOPHARMA INST INC, dated 2019)

T1: 重组人肌红蛋白 (recombinant human myoglobin, expressed in E. coli, made in-house) (human, UniProt P02144 2-154)
T1 construct: also called 人MYO; 重组人MYO
T1 sequence (looked up): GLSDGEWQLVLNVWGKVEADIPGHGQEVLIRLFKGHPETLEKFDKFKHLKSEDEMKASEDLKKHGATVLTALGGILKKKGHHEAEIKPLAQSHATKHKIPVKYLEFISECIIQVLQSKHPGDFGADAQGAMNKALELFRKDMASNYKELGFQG


Key:
[1] = biological target: T1, 重组人肌红蛋白 (recombinant human myoglobin, …); experiment: indirect ELISA, hybridoma supernatant on plates coated with recombinant human MYO at 1 μg/mL, HRP goat anti-mouse IgG
[2] = biological target: T1, 重组人肌红蛋白 (recombinant human myoglobin, …); experiment: Western blot of recombinant MYO with HRP-labelled M26 (1:1000)
[3] = biological target: T1, 重组人肌红蛋白 (recombinant human myoglobin, …); experiment: Western blot of recombinant MYO with HRP-labelled M08 (1:1000)

Row | binding result [1] | Binder | further results
1 | binds | 杂交瘤细胞株M26的抗体 (mouse monoclonal antibody from hybridoma M26) (antibody, V domains shown, Tested as hybridoma culture supernatant; Mouse IgG, detected with HRP goat anti-mouse IgG) VH: QVQLQQSGDDLVKPGASVKLSCKASGYTFTSYWINWIKQRPGQGLEWIGRIAPEGDSTYYNEMFKGKATLTVDTSSSTAYIQLSSLSSEDSAVYFCAREVRNAMDYWGQGTSVTVSS VL: DIQMNQSPSSLSASLGDTITITCHASQNIHVWLSWYLQKPGNITKLLIYEASNLHTGVPSRFSGSGSGTGFTLTISSLQPEDIATYYCQQGQRYPLTFGGGTKLEIK | –
2 | – | 单链抗体M26 (anti-human myoglobin scFv M26, His-tagged, expressed in E. coli) (scFv, Purified on HisTrap HP; HRP-labelled for the Western blot; Coated on the T line of the nitrocellulose membrane in the test card; also called M26抗体; M26-scFv; not shown: histidine tag added downstream of the scFv gene) scFv: QVQLQQSGDDLVKPGASVKLSCKASGYTFTSYWINWIKQRPGQGLEWIGRIAPEGDSTYYNEMFKGKATLTVDTSSSTAYIQLSSLSSEDSAVYFCAREVRNAMDYWGQGTSVTVSSGGGGSGGGGSGGGGSDIQMNQSPSSLSASLGDTITITCHASQNIHVWLSWYLQKPGNITKLLIYEASNLHTGVPSRFSGSGSGTGFTLTISSLQPEDIATYYCQQGQRYPLTFGGGTKLEIK | binding result [2]: binds
3 | binds | 杂交瘤细胞株M08的抗体 (mouse monoclonal antibody from hybridoma M08) (antibody, V domains shown, Tested as hybridoma culture supernatant; Mouse IgG, detected with HRP goat anti-mouse IgG) VH: QVQLQQSGAELAKPGASVKMSCKASGYTFTSYWMHWVKQRPGQGLEWIGYIKPNTDYTEYNQKFKDKATLTADKSSSTAYMQLSSLTSEDSAVYYCTRIRGYALDYWGQGTSVTVSS VL: DIVMTQSPSSLTVTAGEKVTMICKSSQSLLNSGNQKNYLTWYQQKPGQPPKLLIYWASTRESGVPDRFTGSGSGTDFTLTISSVQAEDLAVYYCQNDYNFPLTFGAGTKLELK | –
4 | – | 单链抗体M08 (anti-human myoglobin scFv M08, His-tagged, expressed in E. coli) (scFv, Purified on HisTrap HP; HRP-labelled for the Western blot; Coupled to time-resolved fluorescent microspheres in the test card; also called M08抗体; M08-scFv; not shown: histidine tag added downstream of the scFv gene) scFv: QVQLQQSGAELAKPGASVKMSCKASGYTFTSYWMHWVKQRPGQGLEWIGYIKPNTDYTEYNQKFKDKATLTADKSSSTAYMQLSSLTSEDSAVYYCTRIRGYALDYWGQGTSVTVSSGGGGSGGGGSGGGGSDIVMTQSPSSLTVTAGEKVTMICKSSQSLLNSGNQKNYLTWYQQKPGQPPKLLIYWASTRESGVPDRFTGSGSGTDFTLTISSVQAEDLAVYYCQNDYNFPLTFGAGTKLELK | binding result [3]: binds
